In patent publication US6458934 (LG CHEMICAL, dated 2002):
Numbering of substitutions follows the chain as printed.

B1: mouse monoclonal antibody 4B4-1-1 (antibody, V domains shown)
VH: QVQLQQPGAELVKPGASVKLSCKASGYTFSSYWMHWVKQRPGQVLEWIGEINPGNGHTNYNEKFKSKATLTVDKSSSTAYMQLSSLTSEDSAVYYCARSFTTARAFAYWGQGTLVTVSA
VL: DIVMTQSQATQSVTPGDRVSLSCRASQTISDYLHWYQQKSHESPRLLIKYASQSISGIPSRFSGSGSGSDFTLSINSVEPEDVGVYYCQDGHSFPPTFGGGTKLEIK
notes: Whole mouse monoclonal antibody from a hybridoma; also called 4B4 MAb; 4B4 monoclonal antibody
B2: humanized antibody Hz4B4-1 (antibody, V domains shown)
VH: B1 VH with Q5V, P7S, L11V, R40A, S76A, Q82E, T87R, S91T, A119S
VL: B1 VL with Q8P, T14S, D17E, S20T, S40P, H41G, E42Q, S74T, N76S, V83F
notes: also called Hz4B4k-1 (light chain variable region); Hz4B4h-1 (heavy chain variable region)
B3: humanized antibody Hz4B4-2 (antibody, V domains shown)
VH: QVQLVQSGAEVKKPGASVKVSCKASGYTFSSYWMHWVRQAPGQRLEWMGEINPGNGHTNYSQKFQGRVTITVDKSASTAYMELSSLRSEDTAVYYCARSFTTARAFAYWGQGTLVTVSS
VL: DIVMTQSPPTLSLSPGERVTLSCRASQSISDYLHWYQQKPGQSPRLLIKYASQSISGIPARFSGSGSGTDFTLTISSLEPEDFAVYYCQDGHSFPPTFGGGTKVEIK
notes: Whole antibody made in CHO-K1 cells (SB500 clone); The variable regions were put into the Hz4B4-1 expression vectors, so it has the same human kappa and human heavy chain constant regions; also called Hz4B4k-2 (light chain); Hz4B4h-2 (heavy chain)

What was measured:
[1] = molecular target: T1, 4-1BB antigen (human, UniProt Q07011 24-186, limits assumed); assay: BIAcore SPR; antibody captured by anti-mouse IgG on a CM-5 chip, 4-1BB antigen 25 µg/ml in flow
T1 construct: also called human 4-1BB; h4-1BB
Procedure: (§1) The binding affinity of the mouse monoclonal antibody 4B4-1-1 and humanized antibody were determined and compared using the BIAcore™ assay (Pharmacia). Rabbit anti-mouse IgG (Sigma) and goat anti-human IgG (Fc-specific) were each diluted in 10 mM acetic acid buffer, and coupled to a Dextran CM-5 sensor chip (Pharmacia). 1 M ethanolamine was added to stop the reaction. Mouse monoclonal antibody 4B4-1-1 and humanized antibody Hz4B4-1 were each diluted to a concentration of 50 μg/ml in HEPES buffer (HBS). The coupled antibodies were bound at 100 resonance units (R.U.), and 25 μg/ml of 4-1BB antigen was applied at a flow rate of 10 μl/min. and bound for 5 minutes. HBS buffer (Pharmacia) was applied for 5 minutes at the same flow rate so that dissociation would occur. The association rate and dissociation rates and corresponding rate constants were determined by using BIA evaluation software. The results are shown in Table 2 as $kon$ and $koff$ values; K_d is also shown.

[2] = molecular target: T1, 4-1BB antigen; assay: BIAcore SPR as in Example 5; antibody captured, 4-1BB antigen in flow
Procedure: as §1
(§2) The antigen binding affinity of the purified Hz4B4-2 humanized antibody was measured as in Example 5 using the BIAcore™ assay (Pharmacia).

[3] = molecular target: T1, 4-1BB antigen; assay: BIAcore SPR; ratio of Kd against mouse monoclonal antibody 4B4-1-1
Procedure: as §1, §2

[4] = molecular target: T1, 4-1BB antigen; assay: BIAcore SPR; antibody captured by anti-human IgG (Fc-specific) on a CM-5 chip, 4-1BB antigen 25 µg/ml in flow
Procedure: as §1

[5] = molecular target: T1, 4-1BB antigen; assay: summary of the BIAcore results; ratio against Hz4B4-1
[6] = molecular target: T1, 4-1BB antigen; assay: summary of the BIAcore results; ratio against mouse monoclonal antibody 4B4-1-1

Binder | Kd [1] | koff [1] | kon [1] | Kd [2] | kon [2] | fold greater antigen binding affinity (Kd) than mouse antibody 4B4-1-1 [3] | fold greater antigen binding affinity (Kd) than mouse monoclonal antibody 4B4-1-1 [3] | Kd [4] | koff [4] | kon [4] | koff [2] | fold greater antigen binding affinity than mouse monoclonal antibody 4B4-1-1 [3] | fold greater antigen binding affinity than Hz4B4-1 [5] | fold higher antigen binding affinity than the original mouse monoclonal antibody [6]
B1 | 133 pM | 1.54e-06 s⁻¹ | 11600 M⁻¹ s⁻¹ | 133 pM | 11600 M⁻¹ s⁻¹ |  |  |  |  |  |  |  |  | 
B2 |  |  |  | 87.2 pM | 50000 M⁻¹ s⁻¹ | ~1.5 fold | 1.5 fold | 87.2 pM | 4.36e-06 s⁻¹ | 50000 M⁻¹ s⁻¹ | 4.36e-06 s⁻¹ |  |  | 
B3 |  |  |  |  |  |  |  |  |  |  |  | 7.3 fold | 5 fold | 7 fold
